# Results taken from US20170240632A1, “COMPOSITIONS AND METHODS FOR IDENTIFYING AND TREATING CACHEXIA OR PRE-CACHEXIA” (THE BROAD INSTITUTE INC., priority 2014, published 2017).
# “Also recorded” adds a separate entry of the source.
# B1: HMGB1: high mobility group box 1, RAGE ligand (protein, UniProt P09429 1-215, looked up)
# High mobility group protein B1: MGKGDPKKPRGKMSSYAFFVQTCREEHKKKHPDASVNFSEFSKKCSERWKTMSAKEKGKFEDMAKADKARYEREMKTYIPPKGETKKKFKDPNAPKRPPSAFFLFCSEYRPKIKGEHPGLSIGDVAKKLGEMWNNTAADDKQPYEKKAAKLKEKYEKDIAAYRAKGKPDAAKKGVVKAEKSKKKKEEEEDEEDEEDEEEEEDEEDEDEEEDDDDE
# B2: S100A7: recombinant S100 family protein, RAGE ligand (protein, listed as Homo sapiens)
# chain: MSNTQAERSIIGMIDMFHKYTRRDDKIEKPSLLTMMKENFPNFLSACDKKGTNYLADVFEKKDKNEDKKIDFSEFLSLLGDIATDYHKQSHGAAPCSGGSQ
# B3: S100A8: recombinant S100 family protein, RAGE ligand (protein, listed as Homo sapiens)
# chain: MLTELEKALNSIIDVYHKYSLIKGNFHAVYRDDLKKLLETECPQYIRKKGADVWFKELDINTDGAVNFQEFLILVIKMGVAAHKKSHEESHKE
# B4: Calprotectin: homodimers, heterodimers and heterotetramers of S100A8 and S100A9 (protein, UniProt P05109 1-93; P06702 1-114, looked up)
# Protein S100-A8: MLTELEKALNSIIDVYHKYSLIKGNFHAVYRDDLKKLLETECPQYIRKKGADVWFKELDINTDGAVNFQEFLILVIKMGVAAHKKSHEESHKE
# Protein S100-A9: MTCKMSQLERNIETIINTFHQYSVKLGHPDTLNQGEFKELVRKDLQNFLKKENKNEKVIEHIMEDLDTNADKQLSFEEFIMLMARLTWASHEKMHEGDEGPGHHHKPGLGEGTP
# B5: S100B: recombinant S100 family protein, RAGE ligand (protein, listed as Homo sapiens)
# chain: MSELEKAMVALIDVFHQYSGREGDKHKLKKSELKELINNELSHFLEEIKEQEVVDKVMETLDNDGDGECDFQEFMAFVAMVTTACHEFFEHE
# B6: S100A9: recombinant S100 family protein, RAGE ligand (protein, listed as Homo sapiens)
# chain: MTCKMSQLERNIETIINTFHQYSVKLGHPDTLNQGEFKELVRKDLQNFLKKENKNEKVIEHIMEDLDTNADKQLSFEEFIMLMARLTWASHEKMHEGDEGPGHHHKPGLGEGTP
# System: Primary human myoblast differentiated into terminal myotubes
# Test: Cachexia induction by recombinant S100/HMGB1 proteins, myosin HC in-cell Western
# Type: cell-based
# Settings: recombinant ligands in Hanks Balance Salt Solution applied 1:2 v:v to fresh maintenance media each day for 3 days
# Protocol: FIG. 1 is a graph showing the differential cachexia-inducing activity of r-S100 faimily proteins. All rpooteins are tested in HBSS buffer. Myosin HC is measured in an in-cell Western assay.
# FIGS. 1-4 illustrate the effect of various proteins of the S100 family, as well as HMGB1, as cachexia inducers when conmpared with cachexia-inducing media. Primary human myoblast were plated and differentiated into terminal myotubes as previously described. Recombinant ligands were prepared at the same dose curve in Hanks Balance Salt Solution (buffer) and applied 1:2 v:v to fresh maintenance media each day for 3 days. Cells were assessed for myosin HC content by in-cell Western staining as previously described.
Molecule,induction of the cachectic phenotype (myosin HC content),induction of the cachectic phenotype (myosin HC content) (listed as S100 A7),induction of the cachectic phenotype (myosin HC content) (listed as A8),induction of the cachectic phenotype (myosin HC content) (listed as A9)
B1,do not induce precachexia and/or cachexia; also recorded: not cachexogenic in muscle,,,
B2,key effector molecules in inducing precachexia and/or cachexia,inducers of the cachectic phenotype,,
B3,key effector molecules in inducing precachexia and/or cachexia,,inducers of the cachectic phenotype,
B4,key effector molecules in inducing precachexia and/or cachexia,,,
B5,little or no activity; also recorded: do not induce precachexia and/or cachexia,,,
B6,key effector molecules in inducing precachexia and/or cachexia,,,inducers of the cachectic phenotype
